{"source": "the RNAGym collection of RNA variant scans (doi:10.1093/molbev/msab373)", "parents": {"B1": {"name": "Azoarcus group I ribozyme (parent)", "chain": "GUGCCUUGCGCCGGGAAACCACGCAAGGGAUGGUGUCAAAUUCGGCGAAACCUAAGCGCCCGCCCGGGCGUAUGGCAACGCCGAGCCAAGCUUCGGCGCCUGCGCCGAUGAAGGUGUAGAGACUAGACGGCACCCACCUAAGGCAAACGCUAUGGUGAAGGCAUAGUCCAGGGAGUGGCGAAAGUCACACAAACCGG"}}, "data": [{"variants_of": "B1", "assay": "reverse-splicing fitness (ratio to wild type); higher = more active; in vitro selection; Mg2+ level not given", "how_it_was_run": "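An in vitro group I ribozyme library with randomized positions was T7-transcribed and gel-purified. In triplicate, 10 pmol RNA in EPPS pH 7.5 was reacted with 50 pmoles of a 30-nt RNA substrate for 1 h at 37 °C across several added MgCl2 levels (1–48 mM), then stopped with EDTA. Products were reverse transcribed from a substrate-complementary primer, PCR-amplified and sequenced (HiSeq 4000). Fitness is a variant's read proportion after selection over that before, normalised to wild type.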", "values": [{"variant": "C82A A111C A120C A145U C150G C169A U176G", "reverse-splicing fitness": 0.00744}, {"variant": "C82A A111C A120C A145U C150G C169A U176A", "reverse-splicing fitness": 0.00956}, {"variant": "C82A A111C A120C A145C C150G", "reverse-splicing fitness": 0.00873}, {"variant": "C82A A111C A120C A145C C150A", "reverse-splicing fitness": 0.0107}, {"variant": "C82A A111C A120C A145C C150U", "reverse-splicing fitness": 0.0124}, {"variant": "C82A A111C A120C A145G C169A", "reverse-splicing fitness": 0.00886}, {"variant": "C82A A111C A120C A145G C169G", "reverse-splicing fitness": 0.00846}, {"variant": "C82A A111C A120C A145G C169U", "reverse-splicing fitness": 0.0141}, {"variant": "C82A A111C A120C A145C C150U C169A U176C", "reverse-splicing fitness": 0.0112}, {"variant": "C82A A111C A120C A145C C150U C169A U176G", "reverse-splicing fitness": 0.00751}, {"variant": "C82A A111C A120C A145C C150U C169A U176A", "reverse-splicing fitness": 0.0145}, {"variant": "C82A A111C A120C C169G", "reverse-splicing fitness": 0.0083}, {"variant": "C82A A111C A120C C169U", "reverse-splicing fitness": 0.0124}, {"variant": "C82A A111C A120C C169A", "reverse-splicing fitness": 0.00922}, {"variant": "C82A A111C A120C A145U C150A C169A U176C", "reverse-splicing fitness": 0.0154}, {"variant": "C82A A111C A120C A145U C150A C169A U176G", "reverse-splicing fitness": 0.00859}, {"variant": "C82A A111C A120C A145U C150A C169A U176A", "reverse-splicing fitness": 0.0155}, {"variant": "C82A A111C A120C A145G C150A C169G", "reverse-splicing fitness": 0.00833}, {"variant": "C82A A111C A120C A145G C150A C169A", "reverse-splicing fitness": 0.0106}, {"variant": "C82A A111C A120C A145G C150A C169U", "reverse-splicing fitness": 0.00994}, {"variant": "C82A A111C A120C C169U U176G", "reverse-splicing fitness": 0.00697}, {"variant": "C82A A111C A120C C169U U176C", "reverse-splicing fitness": 0.0149}, {"variant": "C82A A111C A120C C169U U176A", "reverse-splicing fitness": 0.0152}, {"variant": "C82A A111C A120C A145C C150A C169A U176C", "reverse-splicing fitness": 0.00935}, {"variant": "C82A A111C A120C A145C C150A C169A U176G", "reverse-splicing fitness": 0.00733}, {"variant": "C82A A111C A120C A145C C150A C169A U176A", "reverse-splicing fitness": 0.0167}, {"variant": "C82A A111C A120G A145G C150A C169G U176A", "reverse-splicing fitness": 0.017}, {"variant": "C82A A111C A120G A145G C150A C169G U176C", "reverse-splicing fitness": 0.0274}, {"variant": "C82A A111C A120G A145G C150A C169G U176G", "reverse-splicing fitness": 0.00656}, {"variant": "C82A A111C A120C A145C C150A U176A", "reverse-splicing fitness": 0.0106}, {"variant": "C82A A111C A120C A145C C150A U176C", "reverse-splicing fitness": 0.011}, {"variant": "C82A A111C A120C A145C C150A U176G", "reverse-splicing fitness": 0.00581}, {"variant": "C82A A111C A120C A145C C150A C169U U176G", "reverse-splicing fitness": 0.00786}, {"variant": "C82A A111C A120C A145C C150A C169U U176A", "reverse-splicing fitness": 0.0165}, {"variant": "C82A A111C A120C A145C C150A C169U U176C", "reverse-splicing fitness": 0.0127}, {"variant": "C82A A111C A120C A145U C150A C169G", "reverse-splicing fitness": 0.00824}, {"variant": "C82A A111C A120C A145U C150A C169U", "reverse-splicing fitness": 0.0124}, {"variant": "C82A A111C A120C A145U C150A C169A", "reverse-splicing fitness": 0.00876}, {"variant": "C82A A111C A120C A145G C150G C169G U176A", "reverse-splicing fitness": 0.0109}, {"variant": "C82A A111C A120C A145G C150G C169G U176G", "reverse-splicing fitness": 0.00642}, {"variant": "C82A A111C A120C A145G C150G C169G U176C", "reverse-splicing fitness": 0.0131}, {"variant": "C82A A111C A120C A145U C150U U176G", "reverse-splicing fitness": 0.00695}, {"variant": "C82A A111C A120C A145U C150U U176C", "reverse-splicing fitness": 0.0187}, {"variant": "C82A A111C A120C A145U C150U U176A", "reverse-splicing fitness": 0.0128}, {"variant": "C82A A111C A120C A145U C150A U176A", "reverse-splicing fitness": 0.0112}, {"variant": "C82A A111C A120C A145U C150A U176G", "reverse-splicing fitness": 0.00638}, {"variant": "C82A A111C A120C A145U C150A U176C", "reverse-splicing fitness": 0.0164}, {"variant": "C82A A111C A120C A145U C169U U176G", "reverse-splicing fitness": 0.00589}, {"variant": "C82A A111C A120C A145U C169U U176A", "reverse-splicing fitness": 0.0155}, {"variant": "C82A A111C A120C A145U C169U U176C", "reverse-splicing fitness": 0.0141}, {"variant": "C82A A111C A120C A145U C150U C169G U176G", "reverse-splicing fitness": 0.00815}, {"variant": "C82A A111C A120C A145U C150U C169G U176C", "reverse-splicing fitness": 0.015}, {"variant": "C82A A111C A120C A145U C150U C169G U176A", "reverse-splicing fitness": 0.0127}, {"variant": "C82A A111C A120C A145G C150G U176G", "reverse-splicing fitness": 0.00679}, {"variant": "C82A A111C A120C A145G C150G U176A", "reverse-splicing fitness": 0.00652}, {"variant": "C82A A111C A120C A145G C150G U176C", "reverse-splicing fitness": 0.0113}, {"variant": "C82A A111C A120C A145U C169G U176C", "reverse-splicing fitness": 0.0178}, {"variant": "C82A A111C A120C A145U C169G U176G", "reverse-splicing fitness": 0.00709}, {"variant": "C82A A111C A120C A145U C169G U176A", "reverse-splicing fitness": 0.0151}, {"variant": "C82A A111C A120G A145C C150U C169A U176A", "reverse-splicing fitness": 0.0112}, {"variant": "C82A A111C A120G A145C C150U C169A U176C", "reverse-splicing fitness": 0.00619}, {"variant": "C82A A111C A120G A145C C150U C169A U176G", "reverse-splicing fitness": 0.00632}, {"variant": "C82A A111C A120C C150U C169U", "reverse-splicing fitness": 0.0115}, {"variant": "C82A A111C A120C C150U C169A", "reverse-splicing fitness": 0.0121}, {"variant": "C82A A111C A120C C150U C169G", "reverse-splicing fitness": 0.00849}, {"variant": "C82A A111C A120G A145C C150U C169U U176G", "reverse-splicing fitness": 0.00482}, {"variant": "C82A A111C A120G A145C C150U C169U U176C", "reverse-splicing fitness": 0.00813}, {"variant": "C82A A111C A120G A145C C150U C169U U176A", "reverse-splicing fitness": 0.0143}, {"variant": "C82A", "reverse-splicing fitness": 0.658}, {"variant": "C82A A111C A120C A145G C169G U176A", "reverse-splicing fitness": 0.0212}, {"variant": "C82A A111C A120C A145G C169G U176C", "reverse-splicing fitness": 0.0247}, {"variant": "C82A A111C A120C A145G C169G U176G", "reverse-splicing fitness": 0.00694}, {"variant": "C82A A111C A120C A145C C169A U176C", "reverse-splicing fitness": 0.00859}, {"variant": "C82A A111C A120C A145C C169A U176A", "reverse-splicing fitness": 0.0158}, {"variant": "C82A A111C A120C A145C C169A U176G", "reverse-splicing fitness": 0.00646}, {"variant": "C82A A111C A120G A145C C150U U176G", "reverse-splicing fitness": 0.00502}, {"variant": "C82A A111C A120G A145C C150U U176C", "reverse-splicing fitness": 0.0119}, {"variant": "C82A A111C A120G A145C C150U U176A", "reverse-splicing fitness": 0.00894}, {"variant": "C82A A111C A120C A145G C150A C169A U176C", "reverse-splicing fitness": 0.019}, {"variant": "C82A A111C A120C A145G C150A C169A U176G", "reverse-splicing fitness": 0.009}, {"variant": "C82A A111C A120C A145G C150A C169A U176A", "reverse-splicing fitness": 0.0209}, {"variant": "C82A A111C A120C A145C U176C", "reverse-splicing fitness": 0.0149}, {"variant": "C82A A111C A120C A145C U176A", "reverse-splicing fitness": 0.0123}, {"variant": "C82A A111C A120C A145C U176G", "reverse-splicing fitness": 0.00663}]}]}
